Measured values taken from US20030236190A1 (published 2003).
Positions of bridges follow the written chain, without caps; N, C: chain ends. No end group written: not given here.

What was measured:
[1] = molecular target: T1, Soluble IGF-1R (R&D Systems, Cat. # 391-GR/CF); recombinant human IGF-1R (human, UniProt P08069 31-935); assay: phage ELISA, vs IR
T1 construct: extracellular domain; Eu3+-labelled in the TR-FRET assays; also called sIGF-1R; rhIGF-1R

[2] = molecular target: T1, Soluble IGF-1R (R&D Systems, Cat. # …); assay: phage ELISA vs milk
[3] = molecular target: T2, Insulin receptor prepared according to Bass et al., 1996: soluble human insulin receptor-immunoglobulin heavy … (human, UniProt P06213 28-956); assay: phage ELISA vs milk
T2 construct: extracellular domain; Eu3+-labelled in TR-FRET; also called IR; sIR-Fc; not shown: immunoglobulin heavy chain constant domains that replace the transmembrane and i

[4] = molecular target: T2, Insulin receptor prepared according to …; assay: phage ELISA, vs IGF-1R

| Binder | IGF-1R/IR Comparison [1] | Ratio over Background [2] | Ratio over Background [3] | IR/IGF-1R Comparison [4] |
| --- | --- | --- | --- | --- |
| NSRDGGFYLQLERLLGFPVTG [20E2B-3-D4-IGFR] | 9.6 ratio | 7.9 fold | 0.8 fold | 0.1 ratio |
| PGTDLGFYQALRCVVIQGACD (not fully specified (bridges); cysteine pairing not given here) [20E2B-2-22-IGFR] | 8.1 ratio | 4.9 fold | 0.6 fold | 0.1 ratio |
| FYDAIDQLVRGSARAGGTRD [R20α-3-2082-IR] | 12.9 ratio | 39.9 fold | 3.1 fold | 0.1 ratio |
| QPAPDGFYSALMKLIGRGGVS [20E2B-3-C8-IGFR] | 8.9 ratio | 15.6 fold | 1.8 fold | 0.1 ratio |
| VATSQGFYSGLSELLQGGGNV [20E2H-3-E12-IGFR] | 7.3 ratio | 6 fold | 0.8 fold | 0.1 ratio |
| LGYQEPFQQNFYDWFVRQVSGAENAG [E2CA-3-E8-IGFR] | 2.9 ratio | 6.3 fold | 2.2 fold | 0.3 ratio |
| QFYGCLLDLSLGVPSFGWRRRCITA (disulfide 5-22 (inferred)) [20C-3-A4-IGFR] | 7.6 ratio | 8.8 fold | 1.2 fold | 0.1 ratio |
| HLADGQFHEKFYDWFERQISSRCNDC [H2CA-3-E11-IGFR] | 2.2 ratio | 2.2 fold | 1 fold | 0.5 ratio |
| SSYGCDGFYLMLFSLGLVASQELEC (disulfide 5-25 (inferred)) [20C-3-A1-IGFR] | 13.7 ratio | 20.8 fold | 1.5 fold | 0.1 ratio |
| EAASLGSQDRNFYDWFVRQVV [A6S-2-D11-IR] | 2.8 ratio | 37.4 fold | 13.9 fold | 0.4 ratio |
| GNGDGMFYQLLSLLVGRDMHV [20E22-3-C2-IGFR] | 13.8 ratio | 8.9 fold | 0.6 fold | 0.1 ratio |
| GVRAMSFYDALVSVLGLGPSG [20E2B-1-A6-IGFR] | 16.8 ratio | 18.1 fold | 1.1 fold | 0.1 ratio |
| FFYDCLAALLQGVARYHDLCAVEIT (disulfide 5-20 (inferred)) [20C-4-C7-IGFR] | 21.8 ratio | 28 fold | 1.3 fold | < 0.1 ratio |
| LQPCSGFYECIERLIGVKLSG (disulfide 4-10 (inferred)) [20E2Bβ-4-G7-IR] | 15.8 ratio | 25.2 fold | 1.6 fold | 0.1 ratio |
| VEGRGLFYDLLRQLLARRQNG [20E2B-3-C6-IGFR] | 14.8 ratio | 16.8 fold | 1.1 fold | 0.1 ratio |
| TFYSCLASLLTGTPQPNRGPWERCR (disulfide 5-24 (inferred)) [20C-3-G3-IGFR] | 27 ratio | 32.3 fold | 1.2 fold | < 0.1 ratio |
| RFSTDGFYQYLLALVGGGPVG [20E28-1-A11-ICFR] | 9.7 ratio | 9.5 fold | 1 fold | 0.1 ratio |
| PDLHKGFYAQLAQLIRGQLLS [20E2H-3-E3-IGFR] | 13.1 ratio | 16.3 fold | 1.3 fold | 0.1 ratio |
| RGQSDAFYSGLWALIGLSDG [R20β-4-A6-IR] | 17.3 ratio | 25.9 fold | 1.5 fold | 0.1 ratio |
| IQQELTFYDLLHRLVRSELGS [20E2B-3-D2-IGFR] | 11.7 ratio | 12.4 fold | 1.2 fold | 0.1 ratio |
| QGGSASFYDAIDRLLRMRIGG [20E2A-4-F11-IGFR] | 14.6 ratio | 18.8 fold | 1.3 fold | 0.1 ratio |
| VERSASSQDGNFYDWFVVQIR [A6S-2-D1-IR] | 2.6 ratio | 30.6 fold | 12 fold | 0.4 ratio |
| KLHNLMFYYGLQRLVWGAGLG [20E2B-4-H3-IGFR] | 13.9 ratio | 14.8 fold | 1.1 fold | 0.1 ratio |
| DRAFYNGLRDLVGAVYGAWD [R20α-4-20C11-IR] | 10.3 ratio | 30.8 fold | 3 fold | 0.1 ratio |
| ICTGQGFYQVLCGLLRGTSAR (disulfide 2-12 (inferred)) [20E2B-2-B3-IGFR] | 7.4 ratio | 5.3 fold | 0.7 fold | 0.1 ratio |

Other lines, results leading:

| IGF-1R/IR Comparison [1] | Ratio over Background [2] | Ratio over Background [3] | IR/IGF-1R Comparison [4] | Binder |
| --- | --- | --- | --- | --- |
| 11.1 ratio | 16.7 fold | 1.5 fold | 0.1 ratio | LRIANLFYQRLWDLAFGGGG [20E22-3-E8-IGFR] |
| 7.3 ratio | 6.2 fold | 0.9 fold | 0.1 ratio | QGNVLDFYGWIGRLLAKQGSD [20E2B-3-D12-IGFR] |
| 11.7 ratio | 18.7 fold | 1.6 fold | 0.1 ratio | RGMKEEVLVGGSTDPFYHKLSELLQGS [B6Hα-3-F11-IR] |
| 7.6 ratio | 12.2 fold | 1.6 fold | 0.1 ratio | LGVTDGFYAALGYLIHGVGQF [20E2B-3-D11-IGFR] |
| 14.1 ratio | 26.1 fold | 1.9 fold | 0.1 ratio | DRDFCRFYERLTALVGGQVDGGWPC (disulfide 5-25 (inferred)) [20C-3-F6-IGFR] |
| 2.5 ratio | 24.7 fold | 9.8 fold | 0.4 ratio | TSEVQRRSQDNFYDWFVAQVA [A6S-3-E2-IR] |
| 2.1 ratio | 3.3 fold | 1.6 fold | 0.5 ratio | FRTLAAQHDSFYDWFDRQVSGAAGER [H2CA-3-C11-IGFR] |
| 15.5 ratio | 18.7 fold | 1.2 fold | 0.1 ratio | LKDGFYDYFWQRLHLGS [NNRPγ-4-B11-IR] |
| 7.7 ratio | 14.7 fold | 1.9 fold | 0.1 ratio | QPDHSYFYSLLQELVGSEERL [20E2B-4-F9-IGFR] |
| 11.3 ratio | 17.7 fold | 1.6 fold | 0.1 ratio | GGTEVDFYRALERLVRGQLGL [20E23-3-D8-IGFR] |
| 3.3 ratio | 6.2 fold | 1.9 fold | 0.3 ratio | SQAGSAFYAWFDQVLRTVHSA [20E2Bβ-4-G6-IR] |
| 9.7 ratio | 7.3 fold | 0.8 fold | 0.1 ratio | PVGVQGFYEGLSRLVLGRGGW [20E22-4-F8-IGFR] |
